# Results reported in patent US20150140169.
# Changes are numbered by the printed parent chain. Numbers in names are those of the source.
# T1: alpha-s1 casein from Bos taurus
# T1 chain: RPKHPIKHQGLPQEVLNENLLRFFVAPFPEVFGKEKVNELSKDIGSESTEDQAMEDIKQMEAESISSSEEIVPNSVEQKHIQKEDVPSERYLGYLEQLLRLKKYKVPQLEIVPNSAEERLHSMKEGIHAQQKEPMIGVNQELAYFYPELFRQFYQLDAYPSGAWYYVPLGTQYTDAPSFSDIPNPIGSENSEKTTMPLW
# B1: Maxiren (recombinant wild-type calf chymosin B) (protein)
# chain: GEVASVPLTNYLDSQYFGKIYLGTPPQEFTVLFDTGSSDFWVPSIYCKSNACKNHQRFDPRKSSTFQNLGKPLSIHYGTGSMQGILGYDTVTVSNIVDIQQTVGLSTQEPGDVFTYAEFDGILGMAYPSLASEYSIPVFDNMMNRHLVAQDLFSVYMDRNGQESMLTLGAIDPSYYTGSLHWVPVTVQQYWQFTVDSVTISGVVVACEGGCQAILDTGTSKLVGPSSDILNIQQAIGATQNQYGEFDIDCDNLSYMPTVVFEINGKMYPLTPSAYTSQDQGFCTSGFQSENHSQKWILGDVFIREYYSVFDRANNLVGLAKAI
# B2: bovine chymosin B variant #1 (A51V) (protein)
# chain: B1 chain with A51V
# B3: camel chymosin variant #138 (F223E) (protein)
# chain: GKVAREPLTSYLDSQYFGKIYIGTPPQEFTVVFDTGSSDLWVPSIYCKSNVCKNHHRFDPRKSSTFRNLGKPLSIHYGTGSMEGFLGYDTVTVSNIVDPNQTVGLSTEQPGEVFTYSEFDGILGLAYPSLASEYSVPVFDNMMDRHLVARDLFSVYMDRNGQGSMLTLGAIDPSYYTGSLHWVPVTLQQYWQFTVDSVTINGVAVACVGGCQAILDTGTSVLEGPSSDILKIQMAIGATENRYGEFDVNCGNLRSMPTVVFEINGRDYPLSPSAYTSKDQGFCTSGFQGDNNSELWILGDVFIREYYSVFDRANNRVGLAKAI
# B4: camel chymosin variant #142 (F223Q) (protein)
# chain: B3 chain with E223Q
# B5: camel chymosin variant #155 (D290Q) (protein)
# chain: B3 chain with E223F, D290Q
# B6: camel chymosin variant #143 (F223V) (protein)
# chain: B3 chain with E223V
# B7: camel chymosin variant #148 (Q288N) (protein)
# chain: B3 chain with E223F, Q288N
# B8: camel chymosin variant #150 (Q288S) (protein)
# chain: B3 chain with E223F, Q288S
# B9: camel chymosin variant #153 (D290L) (protein)
# chain: B3 chain with E223F, D290L
# B10: camel chymosin variant #151 (D290A) (protein)
# chain: B3 chain with E223F, D290A
# B11: camel chymosin variant #140 (F223M) (protein)
# chain: B3 chain with E223M
# B12: camel chymosin variant #154 (D290M) (protein)
# chain: B3 chain with E223F, D290M
# B13: camel chymosin variant #149 (Q288R) (protein)
# chain: B3 chain with E223F, Q288R
# B14: camel chymosin variant #146 (Q288G) (protein)
# chain: B3 chain with E223F, Q288G
# B15: camel chymosin variant #147 (Q288H) (protein)
# chain: B3 chain with E223F, Q288H
# B16: camel chymosin variant #141 (F223N) (protein)
# chain: B3 chain with E223N
# B17: camel chymosin variant #139 (F223L) (protein)
# chain: B3 chain with E223L
# B18: camel chymosin variant #152 (D290G) (protein)
# chain: B3 chain with E223F, D290G
# B19: camel chymosin variant #144 (F223Y) (protein)
# chain: B3 chain with E223Y
# B20: camel chymosin variant #145 (F223I) (protein)
# chain: B3 chain with E223I
# Biological target: T1, alpha-s1 casein from Bos taurus
Protein,"αs1-I CN, 6 hours, 11° C.","αs1-I CN, 24 hours, 11° C.","αs1 CN, 6 hours, 11° C.","αs1 CN, 24 hours, 11° C.","(αSN1-1)/(αSN1), 6 hours, 11° C.","(αSN1-1)/(αSN1), 24 hours, 11° C.",also measured
B1,2.12e+07 Volume,1.59e+07 Volume,1.14e+07 Volume,1.6e+06 Volume,,,"(αSN1-1)/(αSN1), 6 hours, 11° C. (average): 1.7; (αSN1-1)/(αSN1), 24 hours, 11° C. (average): 6.3; hydrolysis of the first cut in alpha-s1-casein: This rapid first cut is similar to the situation with wild-type calf chymosin (Maxiren); small, 6 hours, 11° C.: 0 Volume; small, 16 hours, 30° C.: 8.1e+06 Volume; small, 24 hours, 11° C.: 6.7e+06 Volume; αs1-I CN, 6 hours, 11° C. (average): 2.63e+07 Volume; αs1-I CN, 16 hours, 30° C.: 600000 Volume; αs1-I CN, 24 hours, 11° C. (average): 2.52e+07 Volume; αs1-I CN/αs1 CN, 6 hours, 11° C.: 1.9; αs1-I CN/αs1 CN, 24 hours, 11° C.: 9.7; αs1 CN, 6 hours, 11° C. (average): 1.58e+07 Volume; αs1 CN, 16 hours, 30° C.: 900000 Volume; αs1 CN, 24 hours, 11° C. (average): 4e+06 Volume"
B2,1.88e+07 Volume,2.36e+07 Volume,2.05e+07 Volume,5.8e+06 Volume,,,"hydrolysis of the first cut in alpha-s1-casein: show a clear hydrolysis of the first cut in alpha-s1-casein, leading to a rapid formation of fragment alpha-s1-I casein; small, 6 hours, 11° C.: 0 Volume; small, 24 hours, 11° C.: 0 Volume; αs1-I CN/αs1 CN, 6 hours, 11° C.: 0.9; αs1-I CN/αs1 CN, 24 hours, 11° C.: 4.1"
B3,2e+07 Volume,2.47e+07 Volume,3.29e+07 Volume,1.74e+07 Volume,0.6,1.4,
B4,2.55e+07 Volume,1.75e+07 Volume,3.72e+07 Volume,1.02e+07 Volume,0.7,1.7,
B5,2.03e+07 Volume,3.36e+07 Volume,3.02e+07 Volume,1.35e+07 Volume,0.7,2.5,
B6,2.62e+07 Volume,1e+07 Volume,2.36e+07 Volume,4.1e+06 Volume,1.1,2.4,
B7,1.74e+07 Volume,2.62e+07 Volume,2.83e+07 Volume,2.03e+07 Volume,0.6,1.3,
B8,1.83e+07 Volume,2.31e+07 Volume,2.87e+07 Volume,1.72e+07 Volume,0.6,1.3,
B9,2.35e+07 Volume,3.49e+07 Volume,2.36e+07 Volume,7.1e+06 Volume,1,4.9,
B10,2.29e+07 Volume,3.22e+07 Volume,2.31e+07 Volume,1.31e+07 Volume,1,2.5,
B11,2.34e+07 Volume,2.27e+07 Volume,3.22e+07 Volume,1.14e+07 Volume,0.7,2,
B12,2.69e+07 Volume,3.77e+07 Volume,2.52e+07 Volume,8.3e+06 Volume,1.1,4.6,
B13,2.16e+07 Volume,2.25e+07 Volume,2.22e+07 Volume,6.7e+06 Volume,1,3.3,
B14,2.17e+07 Volume,2.85e+07 Volume,2.38e+07 Volume,1.23e+07 Volume,0.9,2.3,
B15,2.28e+07 Volume,2.35e+07 Volume,2.15e+07 Volume,7e+06 Volume,1.1,3.3,
B16,2.57e+07 Volume,2.49e+07 Volume,3.57e+07 Volume,1.27e+07 Volume,0.7,2,
B17,2.59e+07 Volume,1.24e+07 Volume,2.1e+07 Volume,2.9e+06 Volume,1.2,4.3,
B18,2.18e+07 Volume,3.33e+07 Volume,2.51e+07 Volume,9.7e+06 Volume,0.9,3.4,
B19,3.05e+07 Volume,2.82e+07 Volume,3.12e+07 Volume,8.4e+06 Volume,1,3.3,
B20,1.91e+07 Volume,1.17e+07 Volume,1.57e+07 Volume,2.8e+06 Volume,1.2,4.1,
